The results in this text go back to PMC11514452, “Stochastic nature and physiological implications of 5′-NAD RNA cap in bacteria” (Nucleic Acids Research, 2024).

In data set [1] the test system is 70S ribosome. Description: BLI. The note with it: tRNAfMet (2-fold molar excess), 10 mM Tris-HCl pH 7.4, 60 mM NH4Cl, RelE assay also 6 mM beta-mercaptoethanol, 37 C 10 min, BLI temperature not stated.
Data set [2] concerns 70S ribosome. The data set can be described thus: footprinting (RelE printing, ribosome titration). Particulars: tRNAfMet, RelE toxin, 10 mM Tris-HCl pH 7.4, 60 mM NH4Cl, RelE assay also 6 mM beta-mercaptoethanol, 37 C 10 min, BLI temperature not stated.
The next data set has as its target T1, NudC (Escherichia coli, UniProt P32664).
T1 construct: homodimer by known biology
T1 sequence (P32664 1-257): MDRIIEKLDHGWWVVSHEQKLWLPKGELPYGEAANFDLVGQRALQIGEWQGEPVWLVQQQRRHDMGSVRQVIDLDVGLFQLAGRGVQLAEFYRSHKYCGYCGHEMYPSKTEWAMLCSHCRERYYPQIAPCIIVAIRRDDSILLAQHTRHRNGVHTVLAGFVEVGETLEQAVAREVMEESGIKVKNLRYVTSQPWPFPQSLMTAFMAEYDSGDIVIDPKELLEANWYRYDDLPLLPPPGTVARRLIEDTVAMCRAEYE
Description: NAD-RNA de-capping in vitro, gel read-out, ppGpp titration. It counts as biochemical. Particulars: read-out: inhibition constant.

Where [3] appears, read: 10 mM Mg(OAc)2, 5'-NAD (first A replaced by NAD, start codon NAD-UG).
Where [4] appears, read: 10 mM Mg(OAc)2, 5'-triphosphate.

In general, Kd refers to a measure of binding affinity in units of concentration. As for “AUGAGCACAAAAAAGAAACCAUUAACACAAGAGCAGCUUGAGGACGCACGUCGCCUUAAAGCAAUUUAUG [NAD-cI(1-70) leaderless mRNA]”, the Kd with 70S ribosome [1] (setting [3]) was 4.3 nM. Moreover, the K half in the data set on 70S ribosome [2] (setting [3]) turned out to be 4.3 nM.

“AUGAGCACAAAAAAGAAACCAUUAACACAAGAGCAGCUUGAGGACGCACGUCGCCUUAAAGCAAUUUAUG [ppp-cI(1-70) leaderless mRNA]”: the Kd in the data set with 70S ribosome [1] (setting [4]) came to 3.5 nM. In the data set with 70S ribosome [2] (setting [4]), this compound yielded a K half of 3.8 nM.

With `Nc1nc2c(ncn2[C@@H]2O[C@H](COP(=O)(O)OP(=O)(O)O)[C@@H](OP(=O)(O)OP(=O)(O)O)[C@H]2O)c(=O)[nH]1` [ppGpp], the Ki on NudC was about 70000 nM.
